The values below come from the supplement of paper PMC9112550, “Optimization of the antimicrobial peptide Bac7 by deep mutational scanning” (BMC Biology, 2022).
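Note: peptides expressed intracellularly from a pBAD plasmid library in pooled LB shake-flask culture, induced with 0.3% L-arabinose, DNA abundance read by NGS, three biological replicates, DESeq2 with apeglm shrinkage.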

The data set relates to Escherichia coli TOP10. Briefly: shrunken log2 fold change of peptide-encoding DNA abundance (4.5 h post-induction vs induction); higher = less antimicrobial activity (less host growth inhibition). To be noted: time post-induction: 4.5 h; library: site-saturation at positions 5, 18, 19, 20.
For RRIRLRPPRLPRPRPRPFMPPRP, the “shrunken log2 fold change” value is -0.195.

For RRIRNRPPRLPRPRPRPHFLPRP, the “shrunken log2 fold change” value is -0.217. Take RRIRRRPPRLPRPRPRPCDNPRP: the “shrunken log2 fold change” value stood at 0.0406.

Take RRIRQRPPRLPRPRPRPVCPPRP: the “shrunken log2 fold change” value was -0.0461. As for RRIRWRPPRLPRPRPRPYTYPRP, the “shrunken log2 fold change” value is -0.329. In the case of RRIRPRPPRLPRPRPRPYEGPRP, the “shrunken log2 fold change” value was -0.0988. With RRIRIRPPRLPRPRPRPHQTPRP, the “shrunken log2 fold change” value worked out at 0.0701.

As to RRIRARPPRLPRPRPRPVDAPRP, the “shrunken log2 fold change” value is 1.28. In the case of RRIRMRPPRLPRPRPRPKMLPRP, the “shrunken log2 fold change” value came out at 0.231.

Take RRIRERPPRLPRPRPRPAGLPRP: the “shrunken log2 fold change” value is -0.0519. Next, RRIRRRPPRLPRPRPRPHDWPRP: 0.312; RRIRIRPPRLPRPRPRPTIFPRP: -0.398; RRIRQRPPRLPRPRPRPQYTPRP: -0.249. For the sequence RRIRSRPPRLPRPRPRPWLMPRP, the “shrunken log2 fold change” value was -0.156.

For the sequence RRIRKRPPRLPRPRPRPSSWPRP, the “shrunken log2 fold change” value turned out to be 0.147. In the case of RRIRWRPPRLPRPRPRPNNQPRP, the “shrunken log2 fold change” value is -0.494.

For RRIRERPPRLPRPRPRPFWHPRP, the “shrunken log2 fold change” value is -0.0333. For RRIRLRPPRLPRPRPRPPINPRP, the “shrunken log2 fold change” value is -0.00991. The value for RRIRVRPPRLPRPRPRPDWWPRP was -0.0161; that for RRIRERPPRLPRPRPRPHMMPRP was -1.14; that for RRIRMRPPRLPRPRPRPGFCPRP was 0.442. With RRIRVRPPRLPRPRPRPDKAPRP, the “shrunken log2 fold change” value was -0.0129. Regarding RRIRYRPPRLPRPRPRPFRTPRP, the “shrunken log2 fold change” value was -0.0801.

As to RRIRNRPPRLPRPRPRPWCVPRP, the “shrunken log2 fold change” value was -0.396. In the case of RRIRYRPPRLPRPRPRPDSVPRP, the “shrunken log2 fold change” value was -0.338. RRIRCRPPRLPRPRPRPWNFPRP: the “shrunken log2 fold change” value is -0.182. For the sequence RRIRYRPPRLPRPRPRPFHFPRP, the “shrunken log2 fold change” value is -0.19. RRIRVRPPRLPRPRPRPFHWPRP: the “shrunken log2 fold change” value was -0.0122.

As for RRIRNRPPRLPRPRPRPKGLPRP, the “shrunken log2 fold change” value is -0.00227. For the sequence RRIRFRPPRLPRPRPRPVDCPRP, the “shrunken log2 fold change” value was -0.0595. RRIRKRPPRLPRPRPRPKRTPRP: the “shrunken log2 fold change” value was determined as 1.7. As to RRIRVRPPRLPRPRPRPGHHPRP, the “shrunken log2 fold change” value turned out to be 0.00137. Take RRIRARPPRLPRPRPRPRHFPRP: the “shrunken log2 fold change” value was determined as 0.157. Next, RRIRTRPPRLPRPRPRPHGSPRP: -0.01; RRIRWRPPRLPRPRPRPDPTPRP: 0.691. For the sequence RRIRLRPPRLPRPRPRPFKMPRP, the “shrunken log2 fold change” value was -0.388. For the sequence RRIRQRPPRLPRPRPRPNRLPRP, the “shrunken log2 fold change” value is 0.0179. With RRIRCRPPRLPRPRPRPLESPRP, the “shrunken log2 fold change” value is 0.0242. RRIRYRPPRLPRPRPRPPGNPRP: the “shrunken log2 fold change” value is -0.0342. The value for RRIRVRPPRLPRPRPRPYYNPRP was -0.548; that for RRIRNRPPRLPRPRPRPTLCPRP was 0.00464.

RRIRKRPPRLPRPRPRPEVPPRP: the “shrunken log2 fold change” value amounted to 0.539. With RRIRLRPPRLPRPRPRPNDNPRP, the “shrunken log2 fold change” value was -0.557. Next, RRIRKRPPRLPRPRPRPLSNPRP: 0.436; RRIRSRPPRLPRPRPRPKGAPRP: 0.38. With RRIRHRPPRLPRPRPRPIEEPRP, the “shrunken log2 fold change” value is -0.127. As for RRIRFRPPRLPRPRPRPLRIPRP, the “shrunken log2 fold change” value came out at 0.00235. As to RRIRTRPPRLPRPRPRPELQPRP, the “shrunken log2 fold change” value is -0.0178.

RRIRDRPPRLPRPRPRPWCQPRP: the “shrunken log2 fold change” value is -0.0971. The value for RRIRLRPPRLPRPRPRPADDPRP was -0.088.

On to RRIRKRPPRLPRPRPRPMEIPRP, for which the “shrunken log2 fold change” value was found to be 0.155.

As for RRIRPRPPRLPRPRPRPLIDPRP, the “shrunken log2 fold change” value was -0.0112. RRIRKRPPRLPRPRPRPFLFPRP: the “shrunken log2 fold change” value is -0.0622.

Turning to RRIRNRPPRLPRPRPRPWHHPRP, the “shrunken log2 fold change” value is -0.209. For the sequence RRIRDRPPRLPRPRPRPDAAPRP, the “shrunken log2 fold change” value is 1.67. On to RRIRLRPPRLPRPRPRPIEFPRP, for which the “shrunken log2 fold change” value was -0.449. For the sequence RRIRYRPPRLPRPRPRPPHLPRP, the “shrunken log2 fold change” value was -0.52. In the case of RRIRIRPPRLPRPRPRPMSRPRP, the “shrunken log2 fold change” value is -0.24. Regarding RRIRGRPPRLPRPRPRPERTPRP, the “shrunken log2 fold change” value came to 1.21. For RRIRRRPPRLPRPRPRPDDFPRP, the “shrunken log2 fold change” value was 0.252. On to RRIRSRPPRLPRPRPRPSYPPRP, for which the “shrunken log2 fold change” value was -0.736. On to RRIRGRPPRLPRPRPRPHDSPRP, for which the “shrunken log2 fold change” value is -0.0179.

As to RRIRHRPPRLPRPRPRPYNNPRP, the “shrunken log2 fold change” value was -0.819. With RRIRWRPPRLPRPRPRPMCNPRP, the “shrunken log2 fold change” value is -0.181. For RRIRKRPPRLPRPRPRPSRNPRP, the “shrunken log2 fold change” value was -0.0207. Consider RRIRTRPPRLPRPRPRPYYAPRP, for which the “shrunken log2 fold change” value was -0.489. Consider RRIRKRPPRLPRPRPRPARAPRP, for which the “shrunken log2 fold change” value worked out at 0.739. For the sequence RRIRRRPPRLPRPRPRPLQLPRP, the “shrunken log2 fold change” value was -0.101.

For RRIRCRPPRLPRPRPRPCPCPRP, the “shrunken log2 fold change” value is -1.35.

In the case of RRIRARPPRLPRPRPRPCFWPRP, the “shrunken log2 fold change” value amounted to 0.364.

For RRIRYRPPRLPRPRPRPIYNPRP, the “shrunken log2 fold change” value is 0.36. Next, RRIRNRPPRLPRPRPRPPSTPRP: 0.0609. On to RRIRGRPPRLPRPRPRPHVIPRP, for which the “shrunken log2 fold change” value is -0.191. For RRIRQRPPRLPRPRPRPSYQPRP, the “shrunken log2 fold change” value was -0.635. For the sequence RRIRDRPPRLPRPRPRPKVFPRP, the “shrunken log2 fold change” value was 0.0612.

For RRIRWRPPRLPRPRPRPYQAPRP, the “shrunken log2 fold change” value was -0.0526. RRIRHRPPRLPRPRPRPWVPPRP: the “shrunken log2 fold change” value is -0.408. Regarding RRIRGRPPRLPRPRPRPAFIPRP, the “shrunken log2 fold change” value is -0.177.

On to RRIRCRPPRLPRPRPRPDRAPRP, for which the “shrunken log2 fold change” value amounted to 0.0901.

As for RRIRTRPPRLPRPRPRPDTYPRP, the “shrunken log2 fold change” value was -0.202. For RRIRWRPPRLPRPRPRPWDDPRP, the “shrunken log2 fold change” value is -0.236. In the case of RRIRVRPPRLPRPRPRPPNNPRP, the “shrunken log2 fold change” value was -0.233. Take RRIRWRPPRLPRPRPRPQSDPRP: the “shrunken log2 fold change” value was -0.239.

Turning to RRIRTRPPRLPRPRPRPLPEPRP, the “shrunken log2 fold change” value is 0.126.

Take RRIRSRPPRLPRPRPRPCCTPRP: the “shrunken log2 fold change” value was -0.0345.

With RRIRARPPRLPRPRPRPFTEPRP, the “shrunken log2 fold change” value was -0.261. The value for RRIRLRPPRLPRPRPRPLVEPRP was 0.222; that for RRIRTRPPRLPRPRPRPEYIPRP was 0.00825. On to RRIRSRPPRLPRPRPRPKYCPRP, for which the “shrunken log2 fold change” value is -0.263. In the case of RRIRVRPPRLPRPRPRPAMAPRP, the “shrunken log2 fold change” value came to 0.418.

Consider RRIRERPPRLPRPRPRPANYPRP, for which the “shrunken log2 fold change” value is -0.0934. With RRIRGRPPRLPRPRPRPCRNPRP, the “shrunken log2 fold change” value came out at 0.0316. Consider RRIRDRPPRLPRPRPRPQICPRP, for which the “shrunken log2 fold change” value is -0.0334. For RRIRNRPPRLPRPRPRPNLQPRP, the “shrunken log2 fold change” value was -0.446. As to RRIRSRPPRLPRPRPRPKNIPRP, the “shrunken log2 fold change” value was -0.314. For the sequence RRIRFRPPRLPRPRPRPAQIPRP, the “shrunken log2 fold change” value is -0.00279.

Turning to RRIRVRPPRLPRPRPRPEMPPRP, the “shrunken log2 fold change” value was 0.0341. As to RRIRERPPRLPRPRPRPVGNPRP, the “shrunken log2 fold change” value was -0.191.

As for RRIRKRPPRLPRPRPRPSCYPRP, the “shrunken log2 fold change” value is -0.0656. Regarding RRIRHRPPRLPRPRPRPECQPRP, the “shrunken log2 fold change” value was -0.0633.

As for RRIRYRPPRLPRPRPRPFPSPRP, the “shrunken log2 fold change” value was -0.0392. Take RRIRCRPPRLPRPRPRPTTNPRP: the “shrunken log2 fold change” value is 0.0115. For RRIRLRPPRLPRPRPRPGRRPRP, the “shrunken log2 fold change” value turned out to be 0.363. For the sequence RRIRWRPPRLPRPRPRPAWMPRP, the “shrunken log2 fold change” value amounted to 0.139.

Regarding RRIRRRPPRLPRPRPRPAMVPRP, the “shrunken log2 fold change” value was found to be 0.00501. The value for RRIRKRPPRLPRPRPRPSDSPRP was -0.132. In the case of RRIRHRPPRLPRPRPRPYRSPRP, the “shrunken log2 fold change” value worked out at 0.0215.

Take RRIRSRPPRLPRPRPRPLLGPRP: the “shrunken log2 fold change” value was 0.0218. In the case of RRIRYRPPRLPRPRPRPKKLPRP, the “shrunken log2 fold change” value is -0.647. The value for RRIRTRPPRLPRPRPRPTQLPRP was -0.319; that for RRIRVRPPRLPRPRPRPTKFPRP was -0.248; that for RRIRNRPPRLPRPRPRPEGNPRP was -0.0214. As to RRIRFRPPRLPRPRPRPLRLPRP, the “shrunken log2 fold change” value stood at 0.891.

For the sequence RRIRDRPPRLPRPRPRPPDQPRP, the “shrunken log2 fold change” value was 0.72. The value for RRIRPRPPRLPRPRPRPENDPRP was -0.0164; that for RRIRCRPPRLPRPRPRPHTVPRP was -0.371; that for RRIRQRPPRLPRPRPRPKTDPRP was -0.326.

Turning to RRIRIRPPRLPRPRPRPVMYPRP, the “shrunken log2 fold change” value was -0.052.

Turning to RRIRQRPPRLPRPRPRPFNGPRP, the “shrunken log2 fold change” value is -0.3.

As for RRIRTRPPRLPRPRPRPQCCPRP, the “shrunken log2 fold change” value is -0.0803.

As to RRIRQRPPRLPRPRPRPNRTPRP, the “shrunken log2 fold change” value is 0.0639.

Consider RRIRFRPPRLPRPRPRPSHTPRP, for which the “shrunken log2 fold change” value was -0.035. The value for RRIRTRPPRLPRPRPRPKISPRP was -0.932; that for RRIRLRPPRLPRPRPRPAHQPRP was -0.0828; that for RRIRARPPRLPRPRPRPDVDPRP was 1.1.
